Assay results taken from paper doi:10.1101/2025.11.10.687450, “ALC1 Finds a New Foothold on the Nucleosome’s Super-Groove” (bioRxiv, 2025).

Target: T1, histone H4 (in the PARylated nucleosome) (UniProt P62799 1-103)
T1 construct: histone H4 as in the nucleosome m2; The H4 chain of m2, written on its own for the contact with ALC1's C-ATPase lobe; also called H4 tail
Test: cryo-EM structure; re-analysis of the public dataset EMPIAR-10739 in CryoSPARC: WT ALC1 with an enzymatically PARylated nucleosome (Widom 601 DNA), sample contained ADP-BeF3; 15,740 particles, global resolution 6.60 Å, domains fitted as rigid bodies
Settings: both partners purified

binding result: binds
B1: Amplified in Liver Cancer 1 (ALC1), wild type (enzyme)
chain: MERAGATSRGGQAPGFLLRLHTEGRAEAARVQEQDLRQWGLTGIHLRSYQLEGVNWLAQRFHCQNGCILGDEMGLGKTCQTIALFIYLAGRLNDEGPFLILCPLSVLSNWKEEMQRFAPGLSCVTYAGDKEERACLQQDLKQESRFHVLLTTYEICLKDASFLKSFPWSVLVVDEAHRLKNQSSLLHKTLSEFSVVFSLLLTGTPIQNSLQELYSLLSFVEPDLFSKEEVGDFIQRYQDIEKESESASELHKLLQPFLLRRVKAEVATELPKKTEVVIYHGMSALQKKYYKAILMKDLDAFENETAKKVKLQNILSQLRKCVDHPYLFDGVEPEPFEVGDHLTEASGKLHLLDKLLAFLYSGGHRVLLFSQMTQMLDILQDYMDYRGYSYERVDGSVRGEERHLAIKNFGQQPIFVFLLSTRAGGVGMNLTAADTVIFVDSDFNPQNDLQAAARAHRIGQNKSVKVIRLIGRDTVEEIVYRKAASKLQLTNMIIEGGHFTLGAQKPAADADLQLSEILKFGLDKLLASEGSTMDEIDLESILGETKDGQWVSDALPAAEGGSRDQEEGKNHMYLFEGKDYSKEPSKEDRKSFEQLVNLQKTLLEKASQEGRSLRNKGSVLIPGLVEGSTKRKRVLSPEELEDRQKKRQEAAAKRRRLIEEKKRQKEEAEHKKKMAWWESNNYQSFCLPSEESEPEDLENGEESSAELDYQDPDATSLKYVSGDVTHPQAGAEDALIVHCVDDSGHWGRGGLFTALEKRSAEPRKIYELAGKMKDLSLGGVLLFPVDDKESRNKGQDLLALIVAQHRDRSNVLSGIKMAALEEGLKKIFLAAKKKKASVHLPRIGHATKGFNWYGTERLIRKHLAARGIPTYIYYFPRSKSAVLHSQSSSSSSRQLVP
notes: ALC1 (chromatin remodeler), human, UniProt Q86WJ1; wild type; residues 28-874 are modelled in the map; The sample is that of the public dataset EMPIAR-10739; also called WT ALC1
